Columns and labels:
[1] = system: CCR5A R18 TALEN canonical ELD/KKR (Artificial (Xanthomonas TALE-FokI)); experiment: cell_activity
[2] = system: CCR5A R18 TALEN Q3 ELD/KKR (Artificial (Xanthomonas TALE-FokI)); experiment: cell_activity
[3] = system: CCR5A R18 TALEN Q7 ELD/KKR (Artificial (Xanthomonas TALE-FokI)); experiment: cell_activity
[4] = system: CCR5A R18 TALEN 28-aa EL/KK (Artificial (Xanthomonas TALE-FokI)); experiment: cleavage_in_vitro; details: as pair, 16 nM
[5] = system: CCR5A R18 TALEN N1 EL/KK (Artificial (Xanthomonas TALE-FokI)); experiment: cleavage_in_vitro; details: as pair, 16 nM
[6] = system: CCR5A R18 TALEN N2 EL/KK (Artificial (Xanthomonas TALE-FokI)); experiment: cleavage_in_vitro; details: as pair, 16 nM
[7] = system: CCR5A R18 TALEN N3 EL/KK (Artificial (Xanthomonas TALE-FokI)); experiment: cleavage_in_vitro; details: as pair, 16 nM
[8] = system: CCR5A R18 TALEN Q3 EL/KK (Artificial (Xanthomonas TALE-FokI)); experiment: cleavage_in_vitro; details: as pair, 16 nM
[9] = system: CCR5A R18 TALEN Q7 EL/KK (Artificial (Xanthomonas TALE-FokI)); experiment: cleavage_in_vitro; details: as pair, 16 nM
[10] = system: CCR5A R18 TALEN canonical EL/KK (Artificial (Xanthomonas TALE-FokI)); experiment: cleavage_in_vitro; details: as L18+R18 pair, 16 nM
[11] = system: CCR5B R10 TALEN (Artificial (Xanthomonas TALE-FokI)); experiment: cleavage_in_vitro; details: as L10+R10 pair
[12] = system: CCR5B R13 TALEN (Artificial (Xanthomonas TALE-FokI)); experiment: cleavage_in_vitro; details: as L13+R13 pair
[13] = system: CCR5B R16 TALEN (Artificial (Xanthomonas TALE-FokI)); experiment: cleavage_in_vitro; details: as L16+R16 pair
[14] = system: CCR5B L13 TALEN (Artificial (Xanthomonas TALE-FokI)); experiment: cleavage_in_vitro; details: as L13+R13 pair
[15] = system: CCR5B L16 TALEN (Artificial (Xanthomonas TALE-FokI)); experiment: cleavage_in_vitro; details: as L16+R16 pair
[16] = system: ATM L18 TALEN N1 EL/KK (Artificial (Xanthomonas TALE-FokI)); experiment: cleavage_in_vitro; details: as pair, 12 nM
[17] = system: ATM L18 TALEN N2 EL/KK (Artificial (Xanthomonas TALE-FokI)); experiment: cleavage_in_vitro; details: as pair, 12 nM
[18] = system: ATM L18 TALEN N3 EL/KK (Artificial (Xanthomonas TALE-FokI)); experiment: cleavage_in_vitro; details: as pair, 12 nM
[19] = system: ATM L18 TALEN Q3 EL/KK (Artificial (Xanthomonas TALE-FokI)); experiment: cleavage_in_vitro; details: as pair, 12 nM
[20] = system: ATM L18 TALEN Q7 EL/KK (Artificial (Xanthomonas TALE-FokI)); experiment: cleavage_in_vitro; details: as pair, 12 nM
[21] = system: ATM L18 TALEN canonical EL/KK (Artificial (Xanthomonas TALE-FokI)); experiment: cleavage_in_vitro; details: as L18+R18 pair, 12 nM
[22] = system: CCR5B L10 TALEN (Artificial (Xanthomonas TALE-FokI)); experiment: cleavage_in_vitro; details: as L10+R10 pair
[23] = system: ATM R18 TALEN N1 EL/KK (Artificial (Xanthomonas TALE-FokI)); experiment: cleavage_in_vitro; details: as pair, 12 nM
[24] = system: ATM R18 TALEN N2 EL/KK (Artificial (Xanthomonas TALE-FokI)); experiment: cleavage_in_vitro; details: as pair, 12 nM
[25] = system: ATM R18 TALEN N3 EL/KK (Artificial (Xanthomonas TALE-FokI)); experiment: cleavage_in_vitro; details: as pair, 12 nM
[26] = system: ATM R18 TALEN Q3 EL/KK (Artificial (Xanthomonas TALE-FokI)); experiment: cleavage_in_vitro; details: as pair, 12 nM
[27] = system: ATM R18 TALEN Q7 EL/KK (Artificial (Xanthomonas TALE-FokI)); experiment: cleavage_in_vitro; details: as pair, 12 nM
[28] = system: ATM R18 TALEN canonical EL/KK (Artificial (Xanthomonas TALE-FokI)); experiment: cleavage_in_vitro; details: as pair, 12 nM

AGCATCAATCCTGGAAGA (double strand) [OffC-16 right half-site]
activity ([1]; pair, off-target, 28 bp spacer): 0.031 % modified

AGGAGCAACTCTGGGAGA (double strand) [OffC-5 right half-site]
activity ([2]; pair, off-target): 0.085 % modified | activity ([3]; pair, off-target, no indels detected): < 0.006 % modified | activity ([1]; pair, off-target, 14 bp spacer): 2.21 % modified

AGTATCAATTCTGGAAGA (double strand) [CCR5A right half-site]
activity ([2]; pair in U2OS-EGFP cells): 24.3 % modified | activity ([3]; pair in U2OS-EGFP cells): 5.57 % modified | activity ([1]; pair in U2OS-EGFP cells): 27.6 % modified | activity (fold enrichment) [4]: 70.4 | activity (fold enrichment) [5]: 19 | activity (fold enrichment) [6]: 41.7 | activity (fold enrichment) [7]: 174 | activity (fold enrichment) [8]: 18.6 | activity (fold enrichment) [9]: 62.3 | activity (fold enrichment) [10]: 12.2

CATACAGTCA (double strand) [CCR5B R10 half-site]
activity (fold enrichment) [11]: 44

CATACAGTCAGTA (double strand) [CCR5B R13 half-site]
activity (fold enrichment) [12]: 113

CATACAGTCAGTATCA (double strand) [CCR5B R16 half-site]
activity (fold enrichment) [13]: 59.4

CTCATCAATTCTGGGTGA (double strand) [OffC-13 right half-site]
activity ([1]; pair, off-target, no indels): < 0.006 % modified

GATATCCTTTCTGGAAGA (double strand) [OffC-28 right half-site]
activity ([1]; pair, off-target, 19 bp spacer): 0.163 % modified

GGTATCTATCCTGGAATA (double strand) [OffC-15 right half-site]
activity ([1]; pair, off-target, 26 bp spacer): 0.23 % modified

TCATTACACCTGC (double strand) [CCR5B L13 half-site]
activity (fold enrichment) [14]: 113

TCTTCATTACACCTGC (double strand) [CCR5B L16 half-site]
activity (fold enrichment) [15]: 59.4

TGAATTGGGATGCTGTTT (double strand) [ATM left half-site]
activity (fold enrichment) [16]: 57.2 | activity (fold enrichment) [17]: 119 | activity (fold enrichment) [18]: 201 | activity (fold enrichment) [19]: 50.4 | activity (fold enrichment) [20]: 513 | activity (fold enrichment) [21]: 20.5

TTACACCTGC (double strand) [CCR5B L10 half-site]
activity (fold enrichment) [22]: 44

TTTATTTTACTGTCTTTA (double strand) [ATM right half-site]
activity (fold enrichment) [23]: 57.2 | activity (fold enrichment) [24]: 119 | activity (fold enrichment) [25]: 201 | activity (fold enrichment) [26]: 50.4 | activity (fold enrichment) [27]: 513 | activity (fold enrichment) [28]: 20.5
